The values below come from the DeepSol protein solubility set.

A short description of the series: soluble on expression in E. coli; label from the status in PepcDB or PDB records.
As to “MGSDKIHHHHHHMAKERVDVLLVEQGLFDTREKAKRAVMAGEILGDNEERLDKPGVKIDPSVKLHLKGKPMPYVSRGGLKLEKALKVFGLDVKGLTVLDIGSSTGGFTDVMLQNGAKLSYALDVGTNQLVWKLREDPRVVVMENTNFRYSKLEDFTEGQPEFASIDVSFISLKLILPALKNIIKTHGSVVSLIKPQFEAGRENVGKHGIVRDRKVHEEVLKNVLAMANAEGFNVKGLDFSPIKGGEGNIEFLAWLERSDTDQGVIEENVDTQKVIDSAYSNLNS”, the “soluble on expression in E. coli” value is listed as “not soluble”.
To “LSFYHPEDRETVSDAVDAALNDGDPYDLEVRLITARGNHRWVRTRGKRVEGAEKPTVRGFIQDITEQKER” belongs “not soluble”; to “MSLRRTRIRFEAWTAENAHRYHSLAHALPQLGARRPTGLLLDEAGRAAIPFLRTGQFIIGLGDPAGSERNCVAAIWRLRDLALQEGCKLAFIQVGQSLMAVYNDLGLTVCPDRTAGTVCCFSEDYRMLRAFLKGEERLARKREGHHHHHH”, “not soluble”; to “SKEFFAPQRAGMKLRTFSDIDKYYTEQKKQEYHKEKVRVVAMAQVARERVRVAVNEHLNQKKYATQKLIEENKETIQNSLRQVWQNRFNYLEKARERKALFLKEKSQKASERLLVQNLNNERTLLTRGLLKIDRLEKNEAVLKEKSLIVKQKLKAEKYRKNLLKEMKKVRSQEIYKRHCEEKFVMDMIAFEKACERLQDAKTKVAIVKTNLDFKVPNGLIK”, “soluble”.
Next, “MGSDKIHHHHHHMIKLIATDIDGTLVKDGSLLIDPEYMSVIDRLIDKGIIFVVCSGRQFSSEFKLFAPIKHKLLYITDGGTVVRTPKEILKTYPMDEDIWKGMCRMVRDELPACDYFAATPDFCFAEDGGSPIFHLLRDSYGFEMREVDDITRLDRNDIIKFTVFHPDKCEELCTPVFIPAWNKKAHLAAAGKEWVDCNAKGVSKWTALSYLIDRFDLLPDEVCCFGDNLNDIEMLQNAGISYAVSNARQEVIAAAKHTCAPYWENGVLSVLKSFL”: “not soluble”.
Next, “MPALDLIRPSVTAMRVIASVNAEFARELKLPPHIRSLGLISADSDDVTYIAADEATKQAMVEVVYGRSLYAGAAHGPSPTAGEVLIMLGGPNPAEVRAGLDAMVANIENGAAFQWANDAENTAFLAHVVSRTGSYLSSTAGITLGDPMAYLVAPPLEATYGIDAALKSADVQLVTYVPPPSETNYSAAFLTGSQAACKAACNAFTDAVLEIARNPIQRA”: “not soluble”; “MGENITTRGVDLLGLPTGTRLRLGESALVELTGLRNPCSQLDNYQPGLTAAVLGRDEQGNLIRKAGVMAIVLEDGEVRPGDAIDIQLPPLPHRALEKV”: “not soluble”.
Take “MRKEVEQLALMGAMPDETDEPTDVLIDKYADLLGKITKPITLDEAHILIKLFPPTALYGIEWTLLHLIESVYPETEFIKYKELINECNSVEFREMLVQRLNNSQQNKVTNK”: the “soluble on expression in E. coli” value is recorded as “not soluble”.
For “MNTSELETLIRTILSEQLTTPAQTPVQPQGKGIFQSVSEAIDAAHQAFLRYQQCPLKTRSAIISAMRQELTPLLAPLAEESANETGMGNKEDKFLKNKAALDNTPGVEDLTTTALTGDGGMVLFEYSPFGVIGSVAPSTNPTETIINNSISMLAAGNSIYFSPHPGAKKVSLKLISLIEEIAFRCCGIRNLVVTVAEPTFEATQQMMAHPRIAVLAITGGPGIVAMGMKSGKKVIGAGAGNPPCIVDETADLVKAAEDIINGASFDYNLPCIAEKSLIVVESVAERLVQQMQTFGALLLSPADTDKLRAVCLPEGQANKKLVGKSPSAMLEAAGIAVPAKAPRLLIALVNADDPWVTSEQLMPMLPVVKVSDFDSALALALKVEEGLHHTAIMHSQNVSRLNLAARTLQTSIFVKNGPSYAGIGVGGEGFTTFTIATPTGEGTTSARTFARSRRCVLTNGFSIR”, the “soluble on expression in E. coli” value is listed as “not soluble”.
In the case of “EETLLNTKLETADLKWVTFPQVDGQWEELSGLDEEQHSVRTYEVCDVQRAPGQAHWLRTGWVPRRGAVHVYATLRFTMLECLSLPRAGRSCKETFTVFYYESDADTATALTPAWMENPYIKVDTVAAEHLTRKRPGAEATGKVNVKTLRLGPLSKAGFYLAFQDQGACMALLSLHLFYKK”, the “soluble on expression in E. coli” value was “soluble”.
Regarding “MGSDKIHHHHHHVSPRIVIVGAGPGGMATAIRLAGQGYQVEIFEAVDRPGGRMRGFSLGDYHFDTGPTILQVPRVYDELFSSAGLRFSDYVTLIRLDPNTRIRFWDGEYLDLTSNIAAFKAQLARFDPALPAEFERWYIEHIRKNVVGYEPYLGTPVRSPLVYLKPREIAAALAFRPWESLYDHFKRFFRDERVVYALSYQAKYLGMHPTACSSVFSLVTFLEFADGIWHPRGGFRALAAGLAKAATDLGVVIHYNSPVKQVLVEEGRACGVELVGGERIKADAVVVNADFGHALTHIIPPHARGTYTDQKLNSMEFSCSTFMLYLGVNRRWDHLPHHQLYLSANIRRNDPLWAKSAVLDEDDPSFYVCNPTIVDPTNAPPGHSTLFVLVPVPNLRYPVDWAAVEQRYRDLIIRQMAKLGFEDVERHIVVERRYTAETWRDEHHTYLGAVFNLIHSWSQLGPFRPHIRHNGARNLYWIGGAVHPGSGLMTILEAAKSAVHFIGEDLPLHQTTAVAH”, the “soluble on expression in E. coli” value was “not soluble”.
Consider “MKIAVVGCDGFGKVHLRAMRNISGIEYYVFSRNEEKARECMKEFNAEGYFTRYEDVIKSNVDIVDLLVSHDQHYPMGVMAMKAGKHLMLEKPIARTIEEAMGLINTSKDTKRKFMVLEQFYFESSVRKAKELLPRLGNLSLIIVRSIHLYQ”, for which the “soluble on expression in E. coli” value is on record as “not soluble”.
To “MLGERIMSKLSKGIKDQASGLRNLSRNKPVKVIAVSAGKGGVGKSNISVNLAIALSQLNYSVMLLDADLGLANVDIMLGLHTKYNLSHVLQGICHLSDIILHGPAGVRVIPAASGTEFMTQLSPAEHAGIIDSFNELTDDLDYMIIDTAAGISETVLSFTRSSQELIVVVCDEPTSLTDAYALIKVMSKRYEWTHFHILANMVRNVKDGRDLFNKLFRVSGQFLDVQLDYLGAIPFDENIHKSVKKQNPILIAYPDSPAAHALRELAESVSNWSFKPSLGGNTSFFLERLVAGQF” belongs “not soluble”; to “MDIPRIFTISESEHRIHNPFTEEKYATLGRVLRMKPGTRILDLGSGSGEMLCTWARDHGITGTGIDMSSLFTAQAKRRAEELGVSERVHFIHNDAAGYVANEKCDVAACVGATWIAGGFAGAEELLAQSLKPGGIMLIGEPYWRQLPATEEIAQACGVSSTSDFLTLPGLVGAFDDLGYDVVEMVLADQEGWDRYEAAKWLTMRRWLEANPDDDFAAEVRAELNIAPKRYVTYARECFGWGVFALIARLEHHHHHH”, “soluble”; to “MQKLILSALFVALVAADCNMRCPDGYMSFKRTPTPKNSMTGMAILSDTLISPNQAKKVCEKDGSILTSFENFDERTKLSTVLRDFLTAKKLDRGSMIVDGHRLKNCETTDKTVLATVECRNSSSGFTTDEKHTDNTFMWKSWSATEPGQTIFEKSIESCLQLSISQFPARSELINDVFCNYVKHPENEGASDLWNYGAVCGRFPEWI”, “not soluble”.
On to “MHRKRERERERERERERERERERERERERERGRDEETSKEKRVTET”, for which the “soluble on expression in E. coli” value is listed as “soluble”.
Take “MGSDKIHHHHHHMSSNQIAIKVTNLSKCYQIYSQPWDRLKQFFAPKIKSVIRRESRSYFKEFWALRDVSFSINRGETVGIIGRNGAGKSTLLQMICGTLTPTVGDIEVNGRVAALLELGAGFNPEFSGRDNVYLNGSVLGLSKSEIDKKFQEILDFADIGDFIDQPVKTYSSGMYVRLAFAVQACIDPEILIVDEALAVGDIGFQYKCFKRMEMLKQKGTTIIMVTHSTGSILEYADRCLVMSDGMLVGNTTDVLAAVLAYEKGMLMTERTDTAEKKEAVSQTGEIASADELSAIQNTQTNAEVDEKRFGSGRAIIEDFSIMKADGTPLSEKPLVKPNEEIYFSFKLNSSENINDVVLGVSLSRTQGGDIWGDNNIFAGHKIDLAPGLRKLKYKVKLPINTGDYLVHCGLACFNNGEREELDQRRPIAKVKFWSSRELGGVIHSPVNVIEGDELS”: the “soluble on expression in E. coli” value was “not soluble”.
To “GAMAPSTIWHCFLKGTRLCFHKESNKEWQDVEDFARAASCDNEEEIQMGTHKGYGSDGLKLLSHEESVSFGESVLKLTFDPGTVEDGLLTVECKLDHPFYVKNKGWSSFYPSLTVVQHGIPCCEIHIGDVCLPPGHPDAINF” belongs “soluble”.
